Measured values from patent publication US20230034906A1 (TRINOMAB BIOTECH, published 2023).

Assays:
Experiment in all cases: indirect ELISA, antibody titrated on gB glycoprotein mutant
[1] = target: T1, gB_Towne protein with N341 mutated into glutamine (human cytomegalovirus, strain Towne, UniProt F5HB53 25-700)
T1 chain: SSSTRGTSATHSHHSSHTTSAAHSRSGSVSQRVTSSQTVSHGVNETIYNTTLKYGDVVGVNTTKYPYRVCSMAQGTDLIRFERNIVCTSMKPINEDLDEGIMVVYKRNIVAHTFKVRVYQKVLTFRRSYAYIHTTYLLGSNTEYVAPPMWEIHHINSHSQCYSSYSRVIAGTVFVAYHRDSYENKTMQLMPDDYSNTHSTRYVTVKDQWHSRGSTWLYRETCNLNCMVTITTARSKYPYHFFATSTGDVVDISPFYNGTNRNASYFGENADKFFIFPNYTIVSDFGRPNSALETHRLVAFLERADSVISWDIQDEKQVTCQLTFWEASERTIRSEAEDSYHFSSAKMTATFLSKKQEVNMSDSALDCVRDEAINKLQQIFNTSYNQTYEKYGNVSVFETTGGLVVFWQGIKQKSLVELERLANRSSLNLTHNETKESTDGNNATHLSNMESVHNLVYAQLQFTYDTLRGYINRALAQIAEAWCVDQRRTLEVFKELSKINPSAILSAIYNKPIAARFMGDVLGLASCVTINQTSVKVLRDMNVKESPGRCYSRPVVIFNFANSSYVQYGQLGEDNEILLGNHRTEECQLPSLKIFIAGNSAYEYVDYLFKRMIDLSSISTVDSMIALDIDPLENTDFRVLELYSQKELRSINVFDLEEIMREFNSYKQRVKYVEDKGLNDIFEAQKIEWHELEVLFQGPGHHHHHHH

[2] = target: T2, gB_Towne protein with N447 mutated into glutamine (human cytomegalovirus, strain Towne, UniProt F5HB53 25-700)
T2 chain: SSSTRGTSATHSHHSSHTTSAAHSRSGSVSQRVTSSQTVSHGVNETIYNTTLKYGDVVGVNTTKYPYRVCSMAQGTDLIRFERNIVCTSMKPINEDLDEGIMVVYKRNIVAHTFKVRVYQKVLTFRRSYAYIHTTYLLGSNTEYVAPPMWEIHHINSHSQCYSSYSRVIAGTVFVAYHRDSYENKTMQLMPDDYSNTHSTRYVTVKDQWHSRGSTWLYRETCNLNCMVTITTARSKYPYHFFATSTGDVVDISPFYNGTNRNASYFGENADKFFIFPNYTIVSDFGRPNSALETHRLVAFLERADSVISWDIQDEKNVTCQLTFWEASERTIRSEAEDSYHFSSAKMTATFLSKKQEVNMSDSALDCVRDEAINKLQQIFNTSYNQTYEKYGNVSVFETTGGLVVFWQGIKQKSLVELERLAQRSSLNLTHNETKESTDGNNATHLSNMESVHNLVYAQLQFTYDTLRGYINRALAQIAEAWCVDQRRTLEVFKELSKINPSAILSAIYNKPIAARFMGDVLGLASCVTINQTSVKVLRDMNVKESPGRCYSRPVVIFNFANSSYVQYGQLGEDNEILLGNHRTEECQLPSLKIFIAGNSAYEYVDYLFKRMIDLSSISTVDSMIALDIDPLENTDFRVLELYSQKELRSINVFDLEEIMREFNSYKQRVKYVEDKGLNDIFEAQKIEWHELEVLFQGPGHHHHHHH

[3] = target: T3, gB_Towne protein with N452 mutated into glutamine (human cytomegalovirus, strain Towne, UniProt F5HB53 25-700)
T3 chain: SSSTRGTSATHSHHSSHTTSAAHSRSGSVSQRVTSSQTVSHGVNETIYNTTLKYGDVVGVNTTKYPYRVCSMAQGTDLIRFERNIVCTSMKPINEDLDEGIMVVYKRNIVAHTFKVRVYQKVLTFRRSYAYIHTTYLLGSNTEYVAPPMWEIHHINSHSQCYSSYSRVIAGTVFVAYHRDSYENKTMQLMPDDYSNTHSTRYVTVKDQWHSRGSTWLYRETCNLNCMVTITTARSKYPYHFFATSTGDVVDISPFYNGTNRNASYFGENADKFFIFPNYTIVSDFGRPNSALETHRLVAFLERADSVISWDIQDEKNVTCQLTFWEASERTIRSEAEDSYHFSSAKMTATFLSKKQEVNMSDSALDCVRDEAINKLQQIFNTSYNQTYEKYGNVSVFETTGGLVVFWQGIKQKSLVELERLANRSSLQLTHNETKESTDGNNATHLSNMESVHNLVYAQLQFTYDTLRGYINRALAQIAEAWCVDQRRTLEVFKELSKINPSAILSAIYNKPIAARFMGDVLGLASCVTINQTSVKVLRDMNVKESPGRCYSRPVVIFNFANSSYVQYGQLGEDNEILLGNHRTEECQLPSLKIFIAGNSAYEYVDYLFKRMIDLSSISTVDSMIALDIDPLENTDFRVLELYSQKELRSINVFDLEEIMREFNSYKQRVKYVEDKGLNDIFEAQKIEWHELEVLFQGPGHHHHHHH

[4] = target: T4, gB_Towne protein with N456 mutated into glutamine (human cytomegalovirus, strain Towne, UniProt F5HB53 25-700)
T4 chain: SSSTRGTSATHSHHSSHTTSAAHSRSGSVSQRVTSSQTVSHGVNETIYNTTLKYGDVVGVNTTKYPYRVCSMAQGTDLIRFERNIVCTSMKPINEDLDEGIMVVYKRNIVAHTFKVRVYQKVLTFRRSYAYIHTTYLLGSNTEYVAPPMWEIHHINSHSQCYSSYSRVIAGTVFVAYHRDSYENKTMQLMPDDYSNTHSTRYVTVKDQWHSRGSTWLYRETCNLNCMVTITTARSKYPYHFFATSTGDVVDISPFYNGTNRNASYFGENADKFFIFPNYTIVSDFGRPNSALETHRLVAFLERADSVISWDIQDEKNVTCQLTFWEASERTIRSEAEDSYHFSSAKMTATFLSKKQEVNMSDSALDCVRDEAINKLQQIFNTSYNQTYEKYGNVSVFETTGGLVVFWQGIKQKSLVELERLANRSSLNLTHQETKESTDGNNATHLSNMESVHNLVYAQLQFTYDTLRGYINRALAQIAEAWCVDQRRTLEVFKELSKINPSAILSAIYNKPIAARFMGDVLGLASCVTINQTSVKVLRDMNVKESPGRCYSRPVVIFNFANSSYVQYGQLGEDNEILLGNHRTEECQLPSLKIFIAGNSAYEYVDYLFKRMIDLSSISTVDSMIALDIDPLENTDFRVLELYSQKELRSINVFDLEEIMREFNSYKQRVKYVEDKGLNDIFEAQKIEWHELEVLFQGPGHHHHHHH

Measured: binding result

B1: TRN1019 (antibody, V domains shown)
VH: QVQLVQSGAEVKKPGESLKISCKGSGYTFTNYWIGWVRQMPGAGLEWMAIIFPRDSYSAYSPSFQGRVTISVDKSISTAYLHWSSLEASDTAVYYCAIYNDLRSGNSWGQGTPLIVSS
VL: DIQMTQSPSSLSASVGDRVTITCRASQSITKYLNWYQQKPGRAPKLLIHTTSTLQSGVPSRFSGSGSGTDFTLTISSLQLEDFGTYYCQQSFSTLWTFGQGTKLDIKR
notes: Fully human antibody; kappa light chain
binds: [1] | [2] | [3] | [4]
